# T1: parathyroid hormone receptor type 1 with GFP inserted in its N-terminus (^GFPPTHR) (UniProt Q03431 27-593)
# T1 sequence: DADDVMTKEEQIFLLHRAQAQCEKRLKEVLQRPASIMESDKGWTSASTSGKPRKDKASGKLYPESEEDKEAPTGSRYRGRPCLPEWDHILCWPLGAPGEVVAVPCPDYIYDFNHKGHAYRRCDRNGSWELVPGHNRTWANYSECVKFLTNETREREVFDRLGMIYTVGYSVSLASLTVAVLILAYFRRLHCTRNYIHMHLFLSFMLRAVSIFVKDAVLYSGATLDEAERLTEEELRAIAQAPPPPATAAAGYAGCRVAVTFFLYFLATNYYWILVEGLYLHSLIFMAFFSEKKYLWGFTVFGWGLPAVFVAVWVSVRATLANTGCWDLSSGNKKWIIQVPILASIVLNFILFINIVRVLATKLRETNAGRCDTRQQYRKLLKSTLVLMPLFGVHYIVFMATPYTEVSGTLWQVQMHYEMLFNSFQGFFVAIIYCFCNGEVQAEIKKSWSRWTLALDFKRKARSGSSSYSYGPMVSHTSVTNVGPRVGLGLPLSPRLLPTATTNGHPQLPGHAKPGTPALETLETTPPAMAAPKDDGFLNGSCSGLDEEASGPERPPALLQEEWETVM
# B1: β-arrestin1 fused to tdTomato (β-arr1^tom) (natural protein)
# chain: MGDKGTRVFKKASPNGKLTVYLGKRDFVDHIDLVDPVDGVVLVDPEYLKERRVYVTLTCAFRYGREDLDVLGLTFRKDLFVANVQSFPPAPEDKKPLTRLQERLIKKLGEHAYPFTFEIPPNLPCSVTLQPGPEDTGKACGVDYEVKAFCAENLEEKIHKRNSVRLVIRKVQYAPERPGPQPTAETTRQFLMSDKPLHLEASLDKEIYYHGEPISVNVHVTNNTNKTVKKIKISVRQYADICLFNTAQYKCPVAMEEADDTVAPSSTFCKVYTLTPFLANNREKRGLALDGKLKHEDTNLASSTLLREGANREILGIIVSYKVKVKLVVSRGGLLGDLASSDVAVELPFTLMHPKPKEEPPHREVPENETPVDTNLIELDTNDDDIVFEDFARQRLKGMKDDKEEEEDGTGSPQLNNR
# Assays:
# [1] = molecular target: T1, parathyroid hormone receptor type 1 …; test: FRAP
# [2] = molecular target: T1, parathyroid hormone receptor type 1 …; test: FRAP; remark: listed apart in the source
binder,measurement,setting,value
B1,"half-life (t1/2) of fluorescence recovery (FRAP), after M-PTH(1-28)",[1],69 ± 4.5 s
same,"half-life (t1/2) of fluorescence recovery (FRAP), after PTH(1-34)",[2],30 ± 2.5 s
